Laboratory results reported in the DeepSol protein solubility set.

Experiment: soluble on expression in E. coli; label from the status in PepcDB or PDB records

| Sequence | soluble on expression in E. coli |
| --- | --- |
| MSLELTVFSIGDWGEKTECLVNVTTKMGSLESAMNPKFIISVGDNFYQRGVKSVEDAAWTEILEEPFGKLSKHLKVHSCLGDHDWRGSTTAQIDRTNYANNTRWYLPGYWWYEKVTFTSEVSLPSLFEKSGLGEISANNSFHFNSSKTENSTSCEIDCLDEIVDNLNTMVNRNNSWNEDLSYKTSISEYFSEKQVNSTAVFIYIDSWTLTQDPFKKTSISYKYSQLEFIEQTLKAAVFENVDWIILVTHYSIYSSGLHGPHTRLASILMPLIKKYRVDFIISGHDHHSEILVPEDFNSYFQIVGASSKEGHHHHHH | soluble |
| MQPYTAPSEIALRQLDYFADKHVLVAGEVEDRFPIELRQYCASVSVFTTHYGYYSQLKAYPEITRYFGEQLTADLNADLILLYWPKAKQEAEYLLAMLLAKLGTGTEIVVVGENRSGVKSIEKMFAAYGPIHKYDSARRCSFYWGHCVHTPAAFDIEQWFKSYAVDYQGHELTIRSLPGVFSHGEFDLGSRLLLDTLPPLSGKVIDIGSGAGVLGCVMAKLNPHIELEMTDISALAIRSSQETLVANQLHGHVYPSDMFSDTGHHYNYIVTNPPFHSGLETSYSATERLLAESVDHLASGGSIWVVANSFLKYPPILEQAFGHCDIAAKTNKFAIYHAKK | not soluble |
| MNGKRPAEPGPARVGKKGKKEVMAEFSDAVTEETLKKQVAEAWSRRTPFSHEVIVMDMDPFLHCVIPNFIQSQDFLEGLQKELMNLDFHEKYNDLYKFQQSDDLKKRREPHISTLRKILFEDFRSWLSDISKIDLESTIDMSCAKYEFTDALLCHDDELEGRRIAFILYLVPPWDRSMGGTLDLYSIDEHFQPKQIVKSLIPSWNKLVFFEVSPVSFHQVSEVLSEEKSRLSISGWFHGPSLTRPPNYFEPPIPRSPHIPQDHEILYDWINPTYLDMDYQVQIQEEFEESSEILLKEFLKPEKFTKVCEALEHGHVEWSSRGPPNKRFYEKAEESKLPEILKECMKLFRSEALFLLLSNFTGLKLHFLAPSEEDEMNDKKEAETTDITEEGTSHSPPEPENNQMAISNNSQQSNEQTDPEPEENETKKESSVPMCQGELRHWKTGHYTLIHDHSKAEFALDLILYCGCEGWEPEYGGFTSYIAKGEDEELLTVNPESNSLALVYRDRETLKFVKHINHRSLEQKKTFPNRTGFWDFSFIYYE | not soluble |
| GPGSMELSFPDKYYEVAKYFDYYVGNLEESPLLSDAQRLMFYALRQQADHGQCTTAAPSFWNSRERHKHQAWKQLGRMSTFEAMVFFVQQFEQLLTQLENSTGQPASTSGATARAGAVDWPSRLREMKSKMAPSPGNRPHRSEALASDGAHATNDILAVRRGPSPA | soluble |
| MAVTTTSESAAEFKEKNVSPVKVEFINAPEKDPGLNVEWQIQGTGYNNEGSGSVIYVRMKNLNDVAIPADAFDDPVLTINGTEASRVEAGTVDLDLPLGPGATTNLQFAFGTGYGSLSDAKLVLGNCIFEGNLSNI | not soluble |
| MSALYRRFRPLTFQEVVGQEHVKEPLLKAIREGRLAQAYLFSGPRGVGKTTTARLLAMAVGCQGEDPPCGVCPHCQAVQRGAHPDVVEIDAASNNSVEDVRELRERIHLAPLSAPRKVFILDEAHMLSKSAFNALLKTLEEPPPHVLFVFATTEPERMPPTILSRTQHFRFRRLTEEEIAFKLRRILEAVGREAEEEALLLLARLADGALRDAESLLERFLLLEGPLTRKEVERALGLPPREALAEIAASLARGKTAEALGLARRLYGEGYAPRSLVSGLLEVFREGLYAAFGLAGTPLPAPPQALIAAMTALDEAMERLARRSDALSLEVALLEAGRALAAEALPQPTGAPSPEVGPKPESPPAPEPPRPEEAPDLRERWRAFLEALRPTLRAFVREARPEVREGQLCLAFPEDKAFHYRKASEQKARLLPLAQAHFGVEEVVLVLEGEKKSLSPRPRPAPPPEAPAPPGPPEEEVEAEEAAEEAPEEALRRVVRLLGGRVLWVRRPRTREAPEEEPLSQDEIGGTGI | soluble |
| MGSDKIHHHHHHMWIVLDTNIYFNQWLLEGANFRVFRNFCNNTGATLLLPEVVKQEVQNKYDGELAQARIELDKLAAKFSKLGVECPSNLVVSDDYDFDQLVREQYRNVILVPYSGVAHEQLVEKALAPKLPFREKEKGYRDALMWLSILDYVKESGFKESIHFVNANSKDFYSNKSGGLTLHEDLKDDLRARNMETNIIPYTSLNEFVEGHVLQELHGVDWMDFYSEFNGELDSDVCVEAIAWLDECSLSVLREKLVEANYPGLIMDGVFAASFETWDGVEDSDILAMRKIDEDRYFIDYAFDIRGLEVKLLSSPTSPASGYFGAYIDVEIDNDLATTSFFTRADFKASVVFNITAEVVEDVDVTSFKFRPR | not soluble |
| MGKSSKPIQTTQNTTQTNAPPEWAKGIFERAAKDAMSFYNQGSGKAVYDGQRVAGLSDQTKNAINGLSNNTHNYDNNYLNGLATGQNSTSQNLKNMASGHEIGNNPYFKEALQNTLNKASDTINSSLAGAGRYGSGAHTGVLADELGSIATQALSQQYNQDVNNMMQANGMIDQANQNQLASANNFFQGQGQANLNALSGGGLLDANHQQQLDEERQKWEQQNNLDWDQLSKLLAAGTASAGNYGMQTEQRTQFTPQTKLNPWQTIGNVGTILGTFAGLSDRRAKENIREAGQKKGYTLYEYNYKGSPERYRGVMAQDVLRSNPEAVFYNNTTGLLHVDYDKLGFNMERVQ | not soluble |
| MSEAQGQGKQSLVEMLKAMVQARASDIHLQAGAPPTVRIDGKLRPFGNRPLTPKEVEAIARALLTPEQLEELEYRKEMDFAYTIPGVARFRCNLLRQRGSFGLVMRVVSEVIPSFEALGLPREVMESLAAKERGLILVTGPTGSGKSTTLAALIDHINLHYAKNIITIEDPIEFLHKHKKSLVVQREVGLDTDSFYTGLKYALRQDPDVIMVGEMRDRETVEAALMAAQTGHLVLSTLHTLDAWRTINRIIDFFPLHEHRQVRVLLAESLLGILSQRLLPKADGQGRVLALEILIATPYVRELLKDEEKMPQIKEAMMEGSLYGMRTFDQHLVELYTEGLISLEDALSAATSPHEFRLLLTKATGQTY | soluble |
| MLCAQTFSEEDFRIRGYVDIHRLDTTIRLALIYSTTDNFVGEDMYGDFDKAYFEKGFAERIHQAQRLLRKEHPDYSLLIYDASRPISIQRRMYTLVKGTSKAVYVANGNRGGKHNYGVAVDLTIVDRDGKPLDMGTPVDHFGRAAHVGQEERLAADGLISREAVRNRRLLRRIMKSVGLVPYRREWWHYELPESMSHTRSHYRLLDF | not soluble |
| MKVPHVIAELVSEFSGFQHTPDFKASRSTGNFEEGSEEGTSGSHKPEEHHHKEHHGHSLYFGKHSGKKHLPPVVENDGDTHSNHSDVSGSGSSLKEKKHHGLTAHFKDLFHIGHHHHHHGEHPHSKQNSGASTPARKNSTGSECPCSKQEQCHKHSINITVGADEVPTVLATPPNEQNILHAHFIKNQSPCISRVVSSSSLKEKLHKIKRTTSSDSDTDFPEKKCSVASYRVVTH | not soluble |
| MGSDKIHHHHHHMSFDPFGDFETTGYLRNSLGLKDPAEVKENEHFSFEMGLDEALSYLERTKNLNYQALLQVHRLLFEKFYPWAGRDRLELVPHLSVWKGPKGAPRRTFFESPAMIERAVDYALSLASKKQGFMQKPGEVMGLLCFAHPFLDGNGRSILLFYMELSYRAGFAIDWASTRKDDYLQALDDEIHNPGKGHLDRYLVPFVVPIHSRDQWPEIIGQINGLDGMDGENITYENLDDPEVQKVYAAYHAEHPYPAKDGTPDSEP | not soluble |
| MVKDCSYSILLPTYNERENLPYILYFIEEVFESMGERYEVIVVDDNSPDGTLEVAKKLQQVFGSDKVVLAPRAGKLGLGSAYSHGLQFAKGNFIIIMDADLSHHPKYIADFVRKQREGSFDVVTGTRYRGEGGVFGWNWRRKLTSVGANLLAQLLLNPGVSDLTGSFRLYRRQAFEQLIHRTRSKGYVFQMEIIVLAKKLGLRVGEVPIVFIDRLYGESKLGGREVIQYLSGLLCLMFQK | soluble |
| MGYSSDTTPCCFAYIARPMPRAHIKEYFYTSGKCSNPAVVFVTRKNRQVCANPEKKWVREYINSLEMS | soluble |
| MPTSELTKERDLRDSKPIWADTPRTGIRSTHTPAANHYDTIVVGAGISGALVSHALHRPGQTMLIIDRREPVMGSSVASTAMIQHEIDTPLTELRKMIGKDAADRAWQRSARAVLRLEEIVSSLGISCSMKRKQALYLAGDEMGSRALKAEAAAREEAGIEARFLSTGELREQYGLDRTAAILSDISASANPAQLTAGLLRHTAAAGAEIVSKLEITDLRNLGDEVVLATADGKILSARSVVFCTGYEFLKMLESPKHQIISTWALASKKGLDLPDWLESHIVWEASDPYLYLRTDRDGRVIAGGEDEENPTAYQSERKLTAKAEAIRRKVEKLIGIDMGAPDYRWAAAFGTTTTGLPLIGAVPGMKNVYAVMGFGGNGITFSQIAAEIVAAAVNGGKDPDADLFRFGLEHHHHHH | soluble |
| MIQEPARVQAAPTFEATIREDNAKYQETAAGGTYSSPNCSCSQRRTRPTEPTKDSPTSTITTIPIVIDSKPNPRILLIRVPTSNRGSNSNNNSNSTRSGTEHRAPRTRIIRIPFLPGSVPTRPPSNQAAPATSSLVNPIGSARRCRISTYPTTGTLTSRSQPETVAGLPTTAMVNQTVPVLSSAPQTQTLAAMAGIQLTGADEPPSRRDVSGAMPTATVEEIDVPVFIDEYLQDIEATSSTCNSENGKEIFTETDILDFDINMFAEEDLIELEGKKTDPFSPAMDGMNNDNLDDDFLQLNDLLNEEETFDMSSMSGVGIDINQEQELDFINIFHNSQPTAMLTSSEDPYLATYSQATSTSSTTKFITEEPLLADMTSFDISYTSSQELGFGLVEDVSGSFASSCSDVAAAIPAPIQHPIITNIKRSAPAPVESQPTKRSRLMLQIKTELAPAFSPTTPEIINQLLNDDRFEAPTTSTSTSTSNTSISSSTHADIVEDLRSAEEETTTDFSAPNTPHSNYSASSSCAAPTCQTGYGGFLTAPTSPAYSTASTSVFSPSPASGISGKRKRGRPAKDHADGPDPVLMSSMKSEEERKAYQDRLKNNEASRVSRRKTKVREEEEKRAEDTLLAENLRLRARADEVASRERKFKKYLMERQRQKSTYVKQEQD | not soluble |
| MGLADDAPLGYLLYRVGAVLRPEVSAALSPLGLTLPEFVCLRMLSQSPGLSSAELARHASVTPQAMNTVLRKLEDAGAVARPASVSSGRSLPATLTARGRALAKRAEAVVRAADARVLARLTAPQQREFKRMLEKLGSD | not soluble |
| MSELVEMEVHGITLDPTTQMPIVVLKGKEDENLILPIWIGAFEANGIAMKLQGVEPPRPMTYELLKNIITEMGGNVEKVVINDLKDSTYYAEIYINQGNNTLVIDSRPSDAINLALRFGAPIYVAEHVLEQSKLPEPEEDEEKKKLREWLENIKPEDFEIGGEKSLEHHHHHH | soluble |
| AWQAAVASNEPFGEAQLAQRIRRYLPEQGQLFVGNSLVVRLIDALAQLPAGYPVYSNRGASGIDGLIATAAGVQRASARPTLAIVGDLSALYDLNSLALLRQASAPLVLIVVNNNGGQIFSMLPTPQDERRQFYLMPQDVDFSHAAVMFGLAYHRPDDWPSLDEALAGAWRRAGATVIELAVNETDG | not soluble |
| MGSDKIHHHHHHADNPVVQTLYTTDPAPMVYNGTCYLYTGHDEDGSTWYTMKDWRCYSSTDMVNWTDNGSPLAYNTFSWAKGDAWAGQCIPRNGKFYYYVPVTQKSGGMAIGVAVSNSPTGPFVDALGHPLAYTGTGDIDPTVFIDNDGQAYLYWGNPNLYYVKLNQDMISYSGKIVQVPLTTAGFGVRKGNSSRPTLYEEGPWFYKRNGMYYMVYAAGGIPEYISYSTSKSPTGPWYYKGVIMPSQGRSFTNHPGVIDFKGNSYFFYHNGALPGGSGFTRSVCIEQFKYNADGTFPTINMTTTGVSGIGNLNPYTQNEAETICWESNVKTEKCSEGGMDVCNIQNNSWIKVKGVNFDSGAASFNARVASATNGGNIELHLDSPSGTLIGTCHVNSTGGWQSWVTNSCNVSGAKGIHDLYLKFTGGNGYLFNVNWWKFNGTKTVSTR | not soluble |
